Measurements: patent EP2127683A1 (Metheresis Translational Research SA, dated 2009)
Values belong to the binder of their own block, whether it stands above or below them.

How the values were obtained:
[1] = target: T1, Met on human tumour cells (GTL-16, FaDu) (human, UniProt P08581 25-1390); assay: cell-binding assay (Lindmo), radiolabelled antibody on paraformaldehyde-fixed GTL-16 cells, double-reciprocal plot extrapolated
T1 construct: whole, on cells; Endogenous Met on 2% paraformaldehyde-fixed cells; also called Hepatocyte Growth Factor Receptor; HGFR
T1 sequence (P08581 25-1390): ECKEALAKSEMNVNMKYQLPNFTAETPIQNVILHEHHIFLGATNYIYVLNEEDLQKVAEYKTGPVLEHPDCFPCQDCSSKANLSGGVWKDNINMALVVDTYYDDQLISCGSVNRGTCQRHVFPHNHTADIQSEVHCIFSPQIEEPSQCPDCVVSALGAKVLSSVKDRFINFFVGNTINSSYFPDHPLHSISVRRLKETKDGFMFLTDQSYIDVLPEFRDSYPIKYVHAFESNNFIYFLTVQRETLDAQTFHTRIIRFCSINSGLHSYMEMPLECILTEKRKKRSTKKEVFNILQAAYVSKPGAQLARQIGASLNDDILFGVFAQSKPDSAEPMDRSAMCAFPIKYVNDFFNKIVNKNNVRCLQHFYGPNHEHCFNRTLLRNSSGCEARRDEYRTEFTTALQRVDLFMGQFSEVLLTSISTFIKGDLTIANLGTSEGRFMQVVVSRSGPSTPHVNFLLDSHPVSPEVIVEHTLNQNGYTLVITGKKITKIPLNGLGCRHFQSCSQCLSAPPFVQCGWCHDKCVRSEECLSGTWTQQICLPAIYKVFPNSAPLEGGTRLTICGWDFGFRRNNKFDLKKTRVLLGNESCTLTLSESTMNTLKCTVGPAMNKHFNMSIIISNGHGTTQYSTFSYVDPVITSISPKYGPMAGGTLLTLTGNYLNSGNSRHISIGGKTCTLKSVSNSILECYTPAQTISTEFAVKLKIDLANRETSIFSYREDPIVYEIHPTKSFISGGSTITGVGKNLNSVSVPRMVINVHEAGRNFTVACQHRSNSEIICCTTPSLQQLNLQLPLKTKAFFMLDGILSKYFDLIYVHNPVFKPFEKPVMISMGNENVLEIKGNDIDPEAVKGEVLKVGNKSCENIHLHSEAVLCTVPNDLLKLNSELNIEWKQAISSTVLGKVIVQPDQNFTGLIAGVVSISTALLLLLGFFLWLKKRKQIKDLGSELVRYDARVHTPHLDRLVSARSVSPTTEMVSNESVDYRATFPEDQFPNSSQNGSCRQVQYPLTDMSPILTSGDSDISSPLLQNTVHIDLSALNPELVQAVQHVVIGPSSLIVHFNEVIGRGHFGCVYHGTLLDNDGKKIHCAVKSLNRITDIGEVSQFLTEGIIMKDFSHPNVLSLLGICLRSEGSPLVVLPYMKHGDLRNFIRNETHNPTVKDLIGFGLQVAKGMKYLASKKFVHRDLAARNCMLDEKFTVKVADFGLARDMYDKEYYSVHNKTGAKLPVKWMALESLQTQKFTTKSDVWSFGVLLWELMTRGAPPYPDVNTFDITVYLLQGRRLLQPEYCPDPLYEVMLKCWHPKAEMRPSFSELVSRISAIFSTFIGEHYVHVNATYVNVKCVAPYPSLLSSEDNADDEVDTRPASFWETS

[2] = target: T1, Met on human tumour cells (GTL-16, FaDu); assay: cell-binding assay (Lindmo), radiolabelled antibody on serial dilution of paraformaldehyde-fixed GTL-16 cells
[3] = target: T2, Met (UniProt P08581 25-932, limits assumed)
T2 construct: Target of the stated Kd; The assay and the construct are not described; also called Hepatocyte Growth Factor Receptor; HGFR
T2 sequence (P08581 25-932 limits assumed): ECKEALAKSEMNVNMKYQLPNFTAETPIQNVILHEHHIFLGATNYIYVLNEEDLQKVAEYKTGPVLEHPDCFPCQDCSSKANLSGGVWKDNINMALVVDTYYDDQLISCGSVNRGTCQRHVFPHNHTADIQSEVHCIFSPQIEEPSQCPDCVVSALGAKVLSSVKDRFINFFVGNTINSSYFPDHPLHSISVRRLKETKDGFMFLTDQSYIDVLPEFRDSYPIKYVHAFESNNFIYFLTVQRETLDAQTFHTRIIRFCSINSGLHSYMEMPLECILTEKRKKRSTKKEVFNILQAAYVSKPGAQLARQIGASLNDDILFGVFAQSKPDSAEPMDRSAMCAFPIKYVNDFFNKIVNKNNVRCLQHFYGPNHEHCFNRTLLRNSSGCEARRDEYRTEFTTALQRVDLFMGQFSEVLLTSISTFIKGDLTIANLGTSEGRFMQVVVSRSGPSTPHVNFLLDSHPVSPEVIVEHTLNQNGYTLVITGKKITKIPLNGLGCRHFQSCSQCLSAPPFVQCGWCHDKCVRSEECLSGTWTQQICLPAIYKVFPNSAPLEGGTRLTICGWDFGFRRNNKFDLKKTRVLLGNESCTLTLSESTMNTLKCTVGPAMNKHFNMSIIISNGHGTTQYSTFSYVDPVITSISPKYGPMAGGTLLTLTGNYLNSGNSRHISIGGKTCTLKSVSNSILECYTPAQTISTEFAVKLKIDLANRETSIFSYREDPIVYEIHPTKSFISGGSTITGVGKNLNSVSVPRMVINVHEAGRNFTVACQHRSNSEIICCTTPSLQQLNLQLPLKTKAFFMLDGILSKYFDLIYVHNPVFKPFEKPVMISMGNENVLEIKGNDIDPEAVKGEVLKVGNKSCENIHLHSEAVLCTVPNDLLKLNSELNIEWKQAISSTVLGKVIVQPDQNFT

[4] = target: T1, Met on human tumour cells (GTL-16, FaDu); assay: immunocytochemistry on fixed cytospins and immunohistochemistry on frozen xenograft sections, streptavidin-alkaline phosphatase

- immunoreactivity at infinite antigen excess [1]: > 95%
- immunoreactivity at the highest cell concentration [2]: > 70%
B1: 89Zr-N-sucDf-DN30 (antibody, mouse IgG2a, kappa, V domains shown)
VH: QVQLQQPGTELVKPGASVKLSCKASGYTFTSYWIHWVKQRPGQGLEWIGEINPSSGRTNYNEKFKNKVTVTVDKSSTTAYMQLSNLTSEDSAVYYCASRGYWGQGTTLTVSS
VL: DIVLTQSPASLAVSLGQRATISCKASQSVDYDGGSYMSWFQQRPGQPPKLLISAASNLESGIPARFSGSGSGTDFTLNIHPVEEEDVATYYCQQSYEDPLTFGAGTKLELKR
modifications: N-succinyl-desferal (N-sucDf) chelate carrying 89Zr coupled to lysine residues, approximately 1 N-sucDf moiety per DN30 molecule; positions not given

- Kd [3]: 2.64 nM
B2: murine IgG2a MAb DN30 (antibody, V domains shown)
VH: B1 VH
VL: B1 VL
notes: Murine IgG2a from the hybridoma; also called anti-Met monoclonal antibody produced by the hybridoma cell line ICLC PD 05006

- immunoreactivity at infinite antigen excess [1]: > 95%
- immunoreactivity at the highest cell concentration [2]: > 70%
B3: 131I-DN30 (antibody, mouse IgG2a, kappa, V domains shown)
VH: B1 VH
VL: B1 VL
modifications: radioiodinated with 131I (IODO-GEN method); positions not given

- binding result [4]: binds
B4: biotinylated DN30 (antibody, mouse IgG2a, kappa, V domains shown)
VH: B1 VH
VL: B1 VL
modifications: biotinylated; positions not given
